Measured values: article PMC3897949, “Dimeric structure of p300/CBP associated factor” (BMC Structural Biology, 2014)
Substitutions are numbered along the chain they refer to. Names and notes keep the numbering of the source.

B1: PCAF HAT domain (amino acids 493-658) L512A/M513A/V516A (domain or fragment, human, UniProt Q92831 493-658, looked up)
chain: VIEFHVVGNSLNQKPNKKIAAWLAGLQNVFSHQLPRMPKEYITRLVFDPKHKTLALIKDGRVIGGICFRMFPSQGFTEIVFCAVTSNEQVKGYGTHLMNHLKEYHIKHDILNFLTYADEYAIGYFKKQGFSKEIKIPKTKYVGYIKDYEGATLMGCELNPRIPYTE
notes: p300/CBP associated factor (PCAF, KAT2B), human, HAT domain, residues 493-658; also called LMV512AAA
B2: PCAF HAT domain (amino acids 493-658) L512D/V516D (domain or fragment, human, UniProt Q92831 493-658, looked up)
chain: B1 chain with A20D, A21M, A24D
notes: p300/CBP associated factor (PCAF, KAT2B), human, HAT domain, residues 493-658; also called LV512DD
B3: PCAF HAT domain (amino acids 493-658) F539A (domain or fragment, human, UniProt Q92831 493-658, looked up)
chain: B1 chain with A20L, A21M, A24V, F47A
notes: p300/CBP associated factor (PCAF, KAT2B), human, HAT domain, residues 493-658
B4: PCAF HAT domain (amino acids 493-658) L512D/V516D/F539A (domain or fragment, human, UniProt Q92831 493-658, looked up)
chain: B1 chain with A20D, A21M, A24D, F47A
notes: p300/CBP associated factor (PCAF, KAT2B), human, HAT domain, residues 493-658; also called LVF512DDA

Biological target: the molecule itself
Experiment: cross-linking; 1 mg/ml protein in 50 mM HEPES pH7.5, 50 mM sodium sulfate; DSS at 5X molar concentration, 1 h at room temperature; SDS-PAGE, coomassie blue

Protein | binding result
B1 | binds
B2 | binds
B3 | binds
B4 | binds
